Experimental data reported in IntAct's records for PubMed 31175292.

B1: Signal transducer and activator of transcription 5B (Homo sapiens), P51692 (parent)
chain: MAVWIQAQQLQGEALHQMQALYGQHFPIEVRHYLSQWIESQAWDSVDLDNPQENIKATQLLEGLVQELQKKAEHQVGEDGFLLKIKLGHYATQLQNTYDRCPMELVRCIRHILYNEQRLVREANNGSSPAGSLADAMSQKHLQINQTFEELRLVTQDTENELKKLQQTQEYFIIQYQESLRIQAQFGPLAQLSPQERLSRETALQQKQVSLEAWLQREAQTLQQYRVELAEKHQKTLQLLRKQQTIILDDELIQWKRRQQLAGNGGPPEGSLDVLQSWCEKLAEIIWQNRQQIRRAEHLCQQLPIPGPVEEMLAEVNATITDIISALVTSTFIIEKQPPQVLKTQTKFAATVRLLVGGKLNVHMNPPQVKATIISEQQAKSLLKNENTRNDYSGEILNNCCVMEYHQATGTLSAHFRNMSLKRIKRSDRRGAESVTEEKFTILFESQFSVGGNELVFQVKTLSLPVVVIVHGSQDNNATATVLWDNAFAEPGRVPFAVPDKVLWPQLCEALNMKFKAEVQSNRGLTKENLVFLAQKLFNNSSSHLEDYSGLSVSWSQFNRENLPGRNYTFWQWFDGVMEVLKKHLKPHWNDGAILGFVNKQQAHDLLINKPDGTFLLRFSDSEIGGITIAWKFDSQERMFWNLMPFTTRDFSIRSLADRLGDLNYLIYVFPDRPKDEVYSKYYTPVPCESATAKAVDGYVKPQIKQVVPEFVNASADAGGGSATYMDQAPSPAVCPQAHYNMYPQNPDSVLDTDGDFDLEDTMDVARRVEELLGRPMDSQWIPHAQS

Variants of: B1
Details: with abl1_human ABL1, P00519
Sequence of abl1_human ABL1, P00519 (P00519 whole entry): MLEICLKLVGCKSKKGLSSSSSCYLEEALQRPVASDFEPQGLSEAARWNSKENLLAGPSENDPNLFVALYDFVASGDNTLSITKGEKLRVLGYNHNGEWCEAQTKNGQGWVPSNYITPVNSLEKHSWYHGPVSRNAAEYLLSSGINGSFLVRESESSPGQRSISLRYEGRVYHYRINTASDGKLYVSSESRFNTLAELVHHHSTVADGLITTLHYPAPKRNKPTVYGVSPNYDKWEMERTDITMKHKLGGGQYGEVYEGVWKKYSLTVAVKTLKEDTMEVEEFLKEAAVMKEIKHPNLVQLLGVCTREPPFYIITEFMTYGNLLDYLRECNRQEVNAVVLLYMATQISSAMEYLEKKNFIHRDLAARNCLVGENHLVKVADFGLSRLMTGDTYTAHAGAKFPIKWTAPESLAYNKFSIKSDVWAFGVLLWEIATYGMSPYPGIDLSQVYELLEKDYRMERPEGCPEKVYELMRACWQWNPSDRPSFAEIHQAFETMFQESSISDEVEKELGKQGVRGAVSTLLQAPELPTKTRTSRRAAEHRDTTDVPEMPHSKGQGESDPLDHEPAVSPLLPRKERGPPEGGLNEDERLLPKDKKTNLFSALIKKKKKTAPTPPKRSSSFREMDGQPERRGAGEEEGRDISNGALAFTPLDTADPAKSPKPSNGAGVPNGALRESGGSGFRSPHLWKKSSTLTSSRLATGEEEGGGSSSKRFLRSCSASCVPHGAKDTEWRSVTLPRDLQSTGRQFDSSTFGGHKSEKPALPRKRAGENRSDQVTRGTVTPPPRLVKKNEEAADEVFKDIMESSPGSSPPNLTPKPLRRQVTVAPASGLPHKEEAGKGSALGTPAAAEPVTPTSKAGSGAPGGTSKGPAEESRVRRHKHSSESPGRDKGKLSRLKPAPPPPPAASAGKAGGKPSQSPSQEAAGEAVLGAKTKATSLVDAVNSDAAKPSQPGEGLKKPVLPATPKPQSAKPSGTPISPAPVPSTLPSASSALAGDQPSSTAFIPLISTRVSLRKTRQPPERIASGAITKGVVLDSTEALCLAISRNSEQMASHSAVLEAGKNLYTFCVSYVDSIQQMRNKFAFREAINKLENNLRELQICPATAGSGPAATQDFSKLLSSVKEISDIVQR

Variant | effect of a mutation on the interaction
N642H | with no effect
